US20220389066A1, “POLYPEPTIDES” (Affibody AB, priority 2019, published 2022)

What was measured:
[1] = biological target: T1, ZH 01 as periplasmic ABD fusion AQHDEALE-[ZH 01]-VDYV-[ABD]-YVPG (Streptococcus strain G148, UniProt P19909 254-299, limits assumed); assay: SPR (Biacore 2000) screening; periplasmic Z-ABD captured on anti-ABD antibody, 200 nM boxA(disulfide); 1:1 model
T1 construct: domain: GA3
Method: (§1) Biacore screening of Z variants: The binding of Z variants to boxA(disulfide) was analyzed in an affinity screening using a Biacore 2000 instrument. A polyclonal goat anti-ABD antibody (goat anti-ABD) was immobilized on CM5 chip surfaces basically as described for other proteins in Example 3. For the kinetic screening, analytes were injected in two steps. First, a Z-ABD (where ABD is GA3) periplasmic extract was injected over the surface at 5 μl/min for 10 min. As a second step, 200 nM boxA(disulfide) was injected at 20 μl/min for 5 min, followed by 10 min of dissociation in running buffer HBS-EP. Glycine-HCl pH 2.0 (GE Healthcare, cat. no. BR100355) was used for regeneration of the antibody surfaces between the cycles. The temperature of the assay was 25° C. Before performing the kinetic analyses, the signal from 200 nM boxA(disulfide) injected over a reference surface containing goat anti-ABD but no Z-ABD sample was subtracted from the sensorgram of Z-ABD binding to boxA(disulfide). […] A periplasmic extract of ZH 01 was included in the screening analysis for comparison.
(§2) Biacore screening of Z variants: Seven new unique Z variants giving the highest response in ELISA-screen, ZH 04 (SEQ ID NO:4), ZH 05 (SEQ ID NO:5), ZH 06 (SEQ ID NO:6), ZH 07 (SEQ ID NO:7), ZH 08 (SEQ ID NO:8), ZH 09 (SEQ ID NO:9) and ZH 10 (SEQ ID NO:10) were submitted to a Biacore affinity screening together with ZH 01 (SEQ ID NO:1) and ZH 29 (SEQ ID NO:29; its binding motif is identical to that of ZH 01, but the sequence comprises scaffold amino acid variations V1A, D2E, Y5F, N52S and D53E). A single concentration of boxA(disulfide) was injected over each Z-ABD captured from periplasmic extracts on a sensor chip surface containing an anti-ABD antibody.

[2] = biological target: T2, ZH 06 as periplasmic ABD fusion AQHDEALE-[ZH 06]-VDYV-[ABD]-YVPG (Streptococcus strain G148, UniProt P19909 254-299, limits assumed); assay: as above
T2 construct: domain: GA3
Method: as §1, §2

[3] = biological target: T3, ZH 05 as periplasmic ABD fusion AQHDEALE-[ZH 05]-VDYV-[ABD]-YVPG (Streptococcus strain G148, UniProt P19909 254-299, limits assumed); assay: as above
T3 construct: domain: GA3
Method: as §1, §2

[4] = biological target: T4, ZH 09 as periplasmic ABD fusion AQHDEALE-[ZH 09]-VDYV-[ABD]-YVPG (Streptococcus strain G148, UniProt P19909 254-299, limits assumed); assay: as above
T4 construct: domain: GA3
Method: as §1, §2

[5] = biological target: T5, ZH 08 as periplasmic ABD fusion AQHDEALE-[ZH 08]-VDYV-[ABD]-YVPG (Streptococcus strain G148, UniProt P19909 254-299, limits assumed); assay: as above
T5 construct: domain: GA3
Method: as §1, §2

[6] = biological target: T6, ZH 10 as periplasmic ABD fusion AQHDEALE-[ZH 10]-VDYV-[ABD]-YVPG (Streptococcus strain G148, UniProt P19909 254-299, limits assumed); assay: as above
T6 construct: domain: GA3
Method: as §1, §2

[7] = biological target: T7, ZH 29 as periplasmic ABD fusion AQHDEALE-[ZH 29]-VDYV-[ABD]-YVPG (Streptococcus strain G148, UniProt P19909 254-299, limits assumed); assay: SPR (Biacore 2000) screening; periplasmic Z-ABD captured on anti-ABD antibody, 200 nM boxA(disulfide); 1:1 model; average of 3 measurements
T7 construct: domain: GA3
Method: as §1, with “comparison. […]” for “comparison.”

[8] = biological target: T8, ZH 04 as periplasmic ABD fusion AQHDEALE-[ZH 04]-VDYV-[ABD]-YVPG (Streptococcus strain G148, UniProt P19909 254-299, limits assumed); assay: SPR (Biacore 2000) screening; periplasmic Z-ABD captured on anti-ABD antibody, 200 nM boxA(disulfide); 1:1 model; average of 2 measurements
T8 construct: domain: GA3
Method: as §1, with “comparison. […]” for “comparison.”

[9] = biological target: T9, ZH 07 as periplasmic ABD fusion AQHDEALE-[ZH 07]-VDYV-[ABD]-YVPG (Streptococcus strain G148, UniProt P19909 254-299, limits assumed); assay: SPR (Biacore 2000) screening; periplasmic Z-ABD captured on anti-ABD antibody, 200 nM boxA(disulfide); 1:1 model; average of 8 measurements
T9 construct: domain: GA3
Method: as §1, with “comparison. […]” for “comparison.”

B1: boxA(disulfide), disulfide linked form of A-box domain of HMGB1 (other)
chain: MGKGDPKKPRGKMSSYAFFVQTCREEHKKKHPDASVNFSEFSKKCSERWKTMSAKEKGKFEDMAKADKARYEREMKTYIPPKGETKKKF
modifications: disulfide C23-C45
notes: also called b-boxA(disulfide)
**Q.** B1 was tested. Which Kd [1] did it give?
**A.** Its Kd is ~4.7 nM.

**Q.** What about the Kd [2] of the same binder?
**A.** Its Kd is ~71 nM.

**Q.** What about the Kd [3] of the same binder?
**A.** The Kd was ~54 nM.

**Q.** And the Kd [4]?
**A.** The Kd was ~91 nM.

**Q.** And the Kd [5]?
**A.** Its Kd is ~31 nM.

**Q.** What about the Kd [6] of the same binder?
**A.** Its Kd is ~47 nM.

**Q.** And the Kd [7]?
**A.** The Kd was ~36 nM.

**Q.** And the Kd [8]?
**A.** The Kd was ~54 nM.

**Q.** And the Kd [9]?
**A.** Its Kd is ~44 nM.
